Experimental data reported in patent USRE47150 (Bayer, dated 2018).
Changes are numbered by the printed parent chain. In names and notes the source's numbering stands.

T1: human tissue factor pathway inhibitor (TFPI) (human, UniProt P10646 29-304, limits assumed)
T1 construct: bought; also called hTFPI; human TFPI
T1 sequence (looked up): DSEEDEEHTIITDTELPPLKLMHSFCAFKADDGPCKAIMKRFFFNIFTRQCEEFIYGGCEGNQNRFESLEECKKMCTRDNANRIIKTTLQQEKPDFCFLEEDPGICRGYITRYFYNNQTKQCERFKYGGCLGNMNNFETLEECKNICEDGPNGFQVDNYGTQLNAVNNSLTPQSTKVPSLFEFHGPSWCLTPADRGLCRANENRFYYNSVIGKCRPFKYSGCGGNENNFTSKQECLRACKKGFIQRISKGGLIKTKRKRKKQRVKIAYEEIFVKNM

T2: mouse tissue factor pathway inhibitor (TFPI) (mouse, UniProt O54819 29-289, limits assumed)
T2 construct: bought; also called mTFPI; murine TFPI
T2 sequence (looked up): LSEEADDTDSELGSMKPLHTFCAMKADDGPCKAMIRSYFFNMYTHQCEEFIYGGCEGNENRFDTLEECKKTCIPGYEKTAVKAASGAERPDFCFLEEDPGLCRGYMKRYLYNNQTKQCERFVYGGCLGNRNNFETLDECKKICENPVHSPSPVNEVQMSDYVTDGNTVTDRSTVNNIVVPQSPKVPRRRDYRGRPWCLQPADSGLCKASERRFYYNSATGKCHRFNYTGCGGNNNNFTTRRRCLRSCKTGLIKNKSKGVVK

B1: 2A8 HC_G33P (Fab, V domains shown)
VH: QVQLVESGGGLVQPGGSLRLSCAASGFTFRSYPMSWVRQAPGKGLEWVSSIRGSSSSTYYADSVKGRFTISRDNSKNTLYLQMNSLRAEDTAVYYCARKYRYWFDYWGQGTLVTVSS
VL: DIELTQPPSVSVAPGQTARISCSGDNLRNYYAHWYQQKPGQAPVVVIYYDNNRPSGIPERFSGSNSGNTATLTISGTQAEDEADYYCQSWDDGVPVFGGGTKLTVLG
notes: also called 2A8-1
B2: 2A8 LC_D91L (Fab, V domains shown)
VH: B1 VH with P33G
VL: B1 VL with D91L
notes: also called 2A8-16
B3: 2A8 HC_I51E (Fab, V domains shown)
VH: B1 VH with P33G, I51E
VL: B1 VL
notes: also called 2A8-6
B4: 2A8 HC_S35D (Fab, V domains shown)
VH: B1 VH with P33G, S35D
VL: B1 VL
notes: also called 2A8-4
B5: 2A8 LC_D91W (Fab, V domains shown)
VH: B1 VH with P33G
VL: B1 VL with D91W
notes: also called 2A8-17
B6: 2A8 LC_Y48F (Fab, V domains shown)
VH: B1 VH with P33G
VL: B1 VL with Y48F
notes: also called 2A8-14
B7: 2A8 LC_D91K (Fab, V domains shown)
VH: B1 VH with P33G
VL: B1 VL with D91K
notes: also called 2A8-15
B8: 2A8 HC_S31V (Fab, V domains shown)
VH: B1 VH with S31V, P33G
VL: B1 VL
notes: also called 2A8-3
B9: 2A8 HC_S54F (Fab, V domains shown)
VH: B1 VH with P33G, S54F
VL: B1 VL
notes: also called 2A8-7
B10: 2A8 HC_K99V (Fab, V domains shown)
VH: B1 VH with P33G, K99V
VL: B1 VL
notes: also called 2A8-10
B11: 2A8 HC_S31P (Fab, V domains shown)
VH: B1 VH with S31P, P33G
VL: B1 VL
notes: also called 2A8-2
B12: 2A8-g216 (HC S31V+I51D+S55R+K99V/LC D1S+I2Y+A13S+S21T+R28P+N29K+Y48F+N51S+E80M+D91L+D92S+V94T+V96W) (Fab, V domains shown)
VH: B1 VH with S31V, P33G, I51D, S55R, K99V
VL: SYELTQPPSVSVSPGQTARITCSGDNLPKYYAHWYQQKPGQAPVVVIFYDSNRPSGIPERFSGSNSGNTATLTISGTQAMDEADYYCQSWLSGTPWFGGGTKLTVLG
B13: 2A8-g200 (HC Q1E+R30S+S35D+S55R+S56G+K99L/LC D1S+I2Y+A13S+S21T+R28P+N29K+Y48F+N51V+E80M+S89A+D91W+D92S+G93S+V94T) (Fab, V domains shown)
VH: B1 VH with Q1E, R30S, P33G, S35D, S55R, S56G, K99L
VL: B12 VL with S51V, S89A, L91W, G93S, W96V
B14: 2A8-227 (HC S35D+K99L/LC Y48F+D91L+V96W) (Fab, V domains shown)
VH: B1 VH with P33G, S35D, K99L
VL: B1 VL with Y48F, D91L, V96W
B15: 4B7 wild-type Fab (Fab, V domains shown)
VH: QVQLQQSGPGLVKPSQTLSLTCAISGDSVSSNSAAWSWIRQSPGRGLEWLGIIYKRSKWYNDYAVSVKSRITINPDTSKNQFSLQLNSVTPEDTAVYYCARWHSDKHWGFDYWGQGTLVTVSS
VL: DIVMTQSPLSLPVTPGEPASISCRSSQSLVFSDGNTYLNWYLQKPGQSPQLLIYKGSNRASGVPDRFSGSGSGTDFTLKISRVEAEDVGVYYCQQYDSYPLTFGQGTKVEIKR
notes: Fab with HA (or c-myc) and 6xHis tag at the C-terminus of the heavy chain; also called 4B7wt; parental 4B7

These binders were tested against T1, human tissue factor pathway inhibitor … (assay: competitive ELISA).
Binder B1 has a variant/wild-type of 5.1 ratio. B2 gave a variant/wild-type of 4.2 ratio. B3 showed a variant/wild-type of 7.3 ratio. For B4, the variant/wild-type was 4.3 ratio. B5 gave a variant/wild-type of 7.4 ratio. B6 was tested, and the variant/wild-type was 4.6 ratio. In the case of B7, the variant/wild-type is reported as 3.5 ratio. B8 was tested, and the variant/wild-type was 9.7 ratio. For B9, the variant/wild-type was 6.5 ratio. B10 was tested, and the variant/wild-type was 7.5 ratio. Work on B11 yielded a variant/wild-type of 3.6 ratio.

The binders below were run against T2, mouse tissue factor pathway inhibitor … (assay: competitive ELISA).
Work on B1 yielded a variant/wild-type of 2.9 ratio. B2 showed a variant/wild-type of 1.6 ratio. B3 showed a variant/wild-type of 0.7 ratio. B4 showed a variant/wild-type of 2.6 ratio. Binder B5 has a variant/wild-type of 4 ratio. B6 was tested, and the variant/wild-type was 3.2 ratio. For B7, the variant/wild-type was 1.4 ratio. Binder B8 has a variant/wild-type of 7.4 ratio. For B9, the variant/wild-type was 3.1 ratio. B10 was tested, and the variant/wild-type was 3.9 ratio. With B11 the variant/wild-type was 2.4 ratio.

Molecular target: T1, human tissue factor pathway inhibitor …
Test: competitive ELISA
Remark: another data set of the same source
B12 was tested, and the variant/HC_K99L was 19.6 ratio. Work on B13 yielded a variant/HC_K99L of 18.3 ratio. With B14 the variant/HC_K99L was 18.8 ratio.

Molecular target: T2, mouse tissue factor pathway inhibitor …
Test: competitive ELISA
Remark: another data set of the same source
For B12, the variant/HC_K99L was 21.4 ratio. For B13, the variant/HC_K99L was 13.3 ratio. Binder B14 has a variant/HC_K99L of 18.2 ratio.

What follows are binders tested against T1, human tissue factor pathway inhibitor … (assay: SPR, TFPI immobilized).
B1 showed an Improvement of 2.7 fold, a Kd of 0.827 nM and a koff of 0.00224 s⁻¹. The kon was 2.71e+06 M⁻¹ s⁻¹. Work on B2 yielded an Improvement of 2.24 fold, a Kd of 0.999 nM and a koff of 0.0044 s⁻¹. The kon was 4.41e+06 M⁻¹ s⁻¹. B3 was tested, and the Improvement was 1.78 fold, the Kd was 1.26 nM and the koff was 0.00162 s⁻¹. It also gave a kon of 1.29e+06 M⁻¹ s⁻¹. B4 gave an Improvement of 2.35 fold, a Kd of 0.95 nM and a koff of 0.0038 s⁻¹. The kon was 4.01e+06 M⁻¹ s⁻¹. B5 gave an Improvement of 2 fold, a Kd of 1.12 nM and a koff of 0.00432 s⁻¹. The kon was 3.86e+06 M⁻¹ s⁻¹. B6 showed an Improvement of 1.97 fold, a Kd of 1.14 nM and a koff of 0.003 s⁻¹. The kon was 2.64e+06 M⁻¹ s⁻¹. Work on B7 yielded an Improvement of 4.64 fold, a Kd of 0.482 nM and a koff of 0.00209 s⁻¹. The kon was 4.33e+06 M⁻¹ s⁻¹. B8 was tested, and the Improvement was 6 fold, the Kd was 0.373 nM and the koff was 0.00143 s⁻¹. It also gave a kon of 3.84e+06 M⁻¹ s⁻¹. In the case of B9, the Improvement is reported as 3.08 fold, the Kd is reported as 0.727 nM and the koff is reported as 0.00204 s⁻¹. The kon was 2.81e+06 M⁻¹ s⁻¹. B10 showed an Improvement of 2.25 fold, a Kd of 0.995 nM and a koff of 0.00254 s⁻¹. It also gave a kon of 2.55e+06 M⁻¹ s⁻¹. Work on B11 yielded an Improvement of 1.95 fold, a Kd of 1.15 nM and a koff of 0.00333 s⁻¹. It also gave a kon of 2.91e+06 M⁻¹ s⁻¹. In the case of B15, the Improvement is reported as 1 fold, the Kd is reported as 11.1 nM and the koff is reported as 0.0084 s⁻¹. The kon was 756000 M⁻¹ s⁻¹.

Each binder was assayed against T2, mouse tissue factor pathway inhibitor … (assay: SPR, TFPI immobilized).
Work on B1 yielded an Improvement of 2.21 fold, a Kd of 1.59 nM and a koff of 0.00145 s⁻¹. For the same binder, the kon was 912000 M⁻¹ s⁻¹. B4 was tested, and the Improvement was 1.78 fold, the Kd was 1.98 nM and the koff was 0.00246 s⁻¹. The kon was 1.25e+06 M⁻¹ s⁻¹. For B5, the Improvement was 4.32 fold, the Kd was 0.814 nM and the koff was 0.00232 s⁻¹. For the same binder, the kon was 2.86e+06 M⁻¹ s⁻¹. With B8 the Improvement was 5.91 fold, the Kd was 0.595 nM and the koff was 0.00202 s⁻¹. The kon was 3.39e+06 M⁻¹ s⁻¹. B9 was tested, and the Improvement was 1.69 fold, the Kd was 2.07 nM and the koff was 0.00183 s⁻¹. It also gave a kon of 884000 M⁻¹ s⁻¹. B11 gave an Improvement of 1.71 fold, a Kd of 2.06 nM and a koff of 0.00316 s⁻¹. It also gave a kon of 1.53e+06 M⁻¹ s⁻¹. For B15, the Improvement was 1 fold, the Kd was 58.6 nM and the koff was 0.128 s⁻¹. For the same binder, the kon was 2.18e+06 M⁻¹ s⁻¹.

Molecular target: T1, human tissue factor pathway inhibitor …
Test: SPR, TFPI immobilized
Remark: another data set of the same source
B12 was tested, and the KD fold improvement was 50.7 fold, the Kd was 0.0365 nM and the koff was 5.29e-05 s⁻¹. The kon was 1.45e+06 M⁻¹ s⁻¹. Binder B13 has a KD fold improvement of 31.7 fold, a Kd of 0.0584 nM and a koff of 3.61e-05 s⁻¹. For the same binder, the kon was 617000 M⁻¹ s⁻¹. In the case of B14, the KD fold improvement is reported as 49.4 fold, the Kd is reported as 0.0375 nM and the koff is reported as 0.000123 s⁻¹. The kon was 3.28e+06 M⁻¹ s⁻¹.

Molecular target: T1, human tissue factor pathway inhibitor …
Test: SPR, TFPI immobilized
Remark: another data set of the same source
With B15 the KD fold improvement was 1 fold, the Kd was 11.1 nM and the koff was 0.0084 s⁻¹. The kon was 756000 M⁻¹ s⁻¹.

Molecular target: T2, mouse tissue factor pathway inhibitor …
Test: SPR, TFPI immobilized
Remark: another data set of the same source
Work on B12 yielded a KD fold improvement of 41.6 fold, a Kd of 0.0791 nM and a koff of 7.78e-05 s⁻¹. It also gave a kon of 984000 M⁻¹ s⁻¹. For B13, the KD fold improvement was 27.3 fold, the Kd was 0.121 nM and the koff was 0.000139 s⁻¹. For the same binder, the kon was 1.15e+06 M⁻¹ s⁻¹. For B14, the KD fold improvement was 21.4 fold, the Kd was 0.153 nM and the koff was 0.00106 s⁻¹. The kon was 6.91e+06 M⁻¹ s⁻¹.

Molecular target: T2, mouse tissue factor pathway inhibitor …
Test: SPR, TFPI immobilized
Remark: another data set of the same source
B15 was tested, and the KD fold improvement was 1 fold, the Kd was 54.7 nM and the koff was 0.172 s⁻¹. It also gave a kon of 3.15e+06 M⁻¹ s⁻¹.

What follows are binders tested against recombinant TFPI of the FXa restoring assay (human, mouse or rat; not specified for Tables 9 and 10) (assay: cell-based or functional assay).
B2 was tested, and the “IC50, FXa restoring assay” value was 0.37 µg/mL and the “Improvement vs parental, FXa restoring assay” value (shortened to “Improvement vs parental”) was 1.7 fold. For B3, the “IC50, FXa restoring assay” value was 0.76 µg/mL and the “Improvement vs parental” value was 0.9 fold. B4 was tested, and the “IC50, FXa restoring assay” value was 0.55 µg/mL and the “Improvement vs parental” value was 1.1 fold. With B5 the “IC50, FXa restoring assay” value was 0.23 µg/mL and the “Improvement vs parental” value was 3 fold. For B6, the “IC50, FXa restoring assay” value was 0.34 µg/mL and the “Improvement vs parental” value was 1.9 fold. In the case of B7, the “IC50, FXa restoring assay” value is reported as 0.34 µg/mL and the “Improvement vs parental” value is reported as 1.9 fold. With B8 the “IC50, FXa restoring assay” value was 0.201 µg/mL and the “Improvement vs parental” value was 3.5 fold. B9 was tested, and the “IC50, FXa restoring assay” value was 0.35 µg/mL and the “Improvement vs parental” value was 2 fold. In the case of B10, the “IC50, FXa restoring assay” value is reported as 0.39 µg/mL and the “Improvement vs parental” value is reported as 1.6 fold. In the case of B11, the “IC50, FXa restoring assay” value is reported as 0.33 µg/mL and the “Improvement vs parental” value is reported as 1.7 fold. For B15, the “IC50, FXa restoring assay” value was 1.46 µg/mL and the “Improvement vs parental” value was 1 fold.
